{"source": "patent US7977317B2", "about": "“Compositions and methods for modulating blood-brain barrier transport” (Raptor Pharmaceutical Inc., priority 2001, dated 2011)", "key": {"BBCEC monolayers [1]": {"tested_on": "BBCEC monolayers", "assay": "Accumulation of ligands in BBCEC monolayers", "assay_type": "cell-based, bovine", "settings": "native proteins (FIG. 13c)", "description": "(§1) FIG. 7 illustrates the results of experiments where the ligands p97, Lf and Tf were heated or not heated prior to the binding study. In all cases, binding experiments were conducted in the transwell apparatus as described previously, with the exception that binding was conducted at either 4° C. or at 37° C. For the 37° C. trial, a separate experiment was conducted where the ligand was boiled for 30 mins then rapidly cooled prior to administration on the transwell plates.\n(§2) FIG. 13 illustrates the transcytosis and accumulation of p97 and transferrin in BBCEC monolayers. FIG. 13a, Transcytosis experiments were performed at 37° C. (solid bars) or 4° C. (white bars). [^125I]-p97 or bovine [^125I]-holo-transferrin (1 mg/ml) was added to the upper side of the cell-covered filter. At the end of the experiment, radiolabelled proteins were measured in the lower chamber of each well by TCA precipitation (n=4). Controls were also performed at 37° C. with denatured [^125I]-p97 or bovine [^125I]-holo-transferrin boiled for 30 min (grey bars) (n=2); FIG. 13b, Biospecific interaction analysis was performed with native or boiled p97 for the indicated times. MAb L235 (5 μg) was immobilized on a sensor chip (SM5) using standard procedures incorporating NHS, EDC and ethanolamine. Native and boiled p97 (5 to 30 min) diluted at 1 mg/ml in Ringer/Hepes was cooled and injected into the BIAcore. The surface plasmon resonance response obtained for native p97 and boiled p97 was plotted (in relative units (RU)) as a function of time; FIG. 13c, The accumulation of both proteins into BBEC cells were also measured. Briefly, after incubation at 37° C. (solid bars) or 4° C. (white bars) with either [^125I]-protein, cells were washed four times with cold PBS. Accumulation of both denatured proteins (grey bars) was also measured at 37° C. Filters were then removed, and the radioactivity associated with the cells was quantified (n=3).\nas §1, with “In” for “FIG. 7 illustrates the results of experiments where the ligands p97, Lf and Tf were heated or not heated prior to the binding study. In”"}, "BBCEC monolayers [2]": {"tested_on": "BBCEC monolayers", "assay": "Transcytosis across BBCEC monolayers (in vitro BBB model)", "assay_type": "cell-based, bovine", "settings": "200-fold molar excess of competitor, [125I]-p97 25 nM (FIG. 15a, 15b)", "from_the_text": "FIG. 10 assesses the ability of several agents to interfere with p97 transyctosis. FIG. 10a, transcytosis of I125-P97 was compared in the presence of cold p97 (5 micromolar), Lf (5 micromolar), and Tf (5 micromolar). […] FIG. 10c, RAP, a known poly-peptide inhibitor of the LDL-Receptor family was applied to the cells (25 micrograms/ml).\nFIG. 11 examines the accumulation and transcytosis of p97. FIG. 11a, of [^125I]-p97, [^125I]-BSA and [^125I]-holo-transferrin one hour after i.v. injection. The radioactivity in brain was compared between the three compounds. (n=3); FIG. 11b, Accumulation of p97 and transferrin into the mouse brain parenchyma. In situ brain perfusion was performed with human [^125I]-p97 or [^125I]-holo-transferrin at a final concentration of 10 nM via a catheter inserted in the right common carotid artery. The volume of distribution (VD) of [^125I]-proteins were obtained in the whole brain homogenate (white bars), in brain capillaries (solid bars) and in brain parenchyma (hatched bars) after isolation of the right hemisphere and capillary depletion. Results were obtained for p97 (n=10) and for holo-transferrin (n=6); FIG. 11c, Transcytosis of p97 across BBCEC monolayers. Transcytosis experiments were performed 37° C. (open circles) and 4° C. (closed circles) with BBCEC monolayers. [^125I]-p97 (1 mg/ml) was added to the upper side of the cell-covered filter. One representative experiment is shown (n=4); FIG. 11d, Preferential transport of p97 across the BBCEC monolayers. Apical-to-basal and basal-to-apical transport of [^125I]-p97 (25 nM) was measured for 2 hrs at 37° C. At the end of the experiment, [^125I]-p97 was assessed in the lower or upper chambers of each well by TCA precipitation (n=4).\nas §2\nFIG. 14 illustrates the stability of p97 and integrity of the BBCEC monolayers following p97 transcytosis. FIG. 14a, Transcytosis experiments were performed at 37° C. and 4° C. by adding p97 (1 mg/ml) to the upper compartment. At the end of the experiment, 50 μl from each lower chamber was used for SDS-polyacrylamide gel electrophoresis. After electrophoresis, the gels were stained with Coomassie Blue. A standard curve was also made with known amounts of recombinant p97 (0-2 μg); FIG. 14b. The gels were dried and scanned to quantify the amount of intact p97 that crossed the BBCEC monolayers at 37° C. and 4° C. (n=3); FIG. 14c, Effect of p97 on sucrose permeability of BBCE cell monolayers co-cultured with astrocytes. […]"}}}
{"molecule": "bovine holo-transferrin: bovine holo-transferrin (protein, UniProt Q29443 20-704, looked up, iron-loaded (holo)) Serotransferrin: DPERTVRWCTISTHEANKCASFRENVLRILESGPFVSCVKKTSHMDCIKAISNNEADAVTLDGGLVYEAGLKPNNLKPVVAEFHGTKDNPQTHYYAVAVVKKDTDFKLNELRGKKSCHTGLGRSAGWNIPMAKLYKELPDPQESIQRAAANFFSASCVPCADQSSFPKLCQLCAGKGTDKCACSNHEPYFGYSGAFKCLMEGAGDVAFVKHSTVFDNLPNPEDRKNYELLCGDNTRKSVDDYQECYLAMVPSHAVVARTVGGKEDVIWELLNHAQEHFGKDKPDNFQLFQSPHGKDLLFKDSADGFLKIPSKMDFELYLGYEYVTALQNLRESKPPDSSKDECMVKWCAIGHQERTKCDRWSGFSGGAIECETAENTEECIAKIMKGEADAMSLDGGYLYIAGKCGLVPVLAENYKTEGESCKNTPEKGYLAVAVVKTSDANINWNNLKDKKSCHTAVDRTAGWNIPMGLLYSKINNCKFDEFFSAGCAPGSPRNSSLCALCIGSEKGTGKECVPNSNERYYGYTGAFRCLVEKGDVAFVKDQTVIQNTDGNNNEAWAKNLKKENFEVLCKDGTRKPVTDAENCHLARGPNHAVVSRKDKATCVEKILNKQQDDFGKSVTDCTSNFCLFQSNSKDLLFRDDTKCLASIAKKTYDSYLGDDYVRAMTNLRQCSTSKLLEACTFHKP", "values": [{"measurement": "Accumulation in BBCE cells", "setting": "BBCEC monolayers [1]", "value": "no significant accumulation"}, {"measurement": "Reduction of apical-to-basal transport of [125I]-p97", "setting": "BBCEC monolayers [2]", "value": "had no impact"}]}
